The first experiment addresses T1, Boi1 SH3 (BOI1_YEAST), P38041.
T1 chain: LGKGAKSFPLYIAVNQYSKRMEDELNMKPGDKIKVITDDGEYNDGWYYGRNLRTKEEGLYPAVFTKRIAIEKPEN
Put plainly: SPOT array.
EGTTKVDPIIPVPE [YJR122W 96-109] returned a normalised SPOT signal, Boehringer light units (BLU); mean over the file's lines of this peptide of 57.3.
In turn, EFTTREGPHQPIGN [YDR123C 192-205] had a normalised SPOT signal, Boehringer light units (BLU); mean over the file's lines of this peptide of 268.
Still for that read-out and setting: for EKESRHYPIKPPSP [YMR147W 121-134] the value was 64.2; for EIKDRDQPAVPPSP [YOL047C 317-330], 5.1.
The same measure, in the same setting: for EKELKEGPSSPASI [YJL076W 376-389] the value was 46.3; for EKLIKITPDTPFGF [YOR340C 102-115], 0.
On the same count and under the same terms, for EHLQKERPKPPNKG [YOR233W 329-342] the value was 744; for EIAKRLQPGSPVLG [YHR047C 776-789], 26.9; for EIPSKDHPYDPEKD [YGR020C 93-106], 51.8.
EKEAKSEPQQPEDN [YML010W 68-81]: the normalised SPOT signal, Boehringer light units (BLU); mean over the file's lines of this peptide came to 22.6.
The same measure, in the same setting: the figure for EGRSRLFPHSPLGR [YGL122C 259-272] is 14900.

The next experiment has as its target T2, Yhr016c SH3 (YSC84_YEAST), P32793.
T2 chain: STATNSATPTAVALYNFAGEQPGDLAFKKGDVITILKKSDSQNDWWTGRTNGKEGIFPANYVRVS
Put plainly: SPOT array.
EGTTKVDPIIPVPE [YJR122W 96-109]: the normalised SPOT signal, Boehringer light units (BLU); mean over the file's lines of this peptide worked out at 0.
Still for that read-out and setting: for EFTTREGPHQPIGN [YDR123C 192-205] the value was 34.5; for EKESRHYPIKPPSP [YMR147W 121-134], 39.7.
Regarding EIKDRDQPAVPPSP [YOL047C 317-330], the normalised SPOT signal, Boehringer light units (BLU); mean over the file's lines of this peptide was -0.
Same read-out and setting: the figure for EKELKEGPSSPASI [YJL076W 376-389] is 28.2.
In the case of EKLIKITPDTPFGF [YOR340C 102-115], the normalised SPOT signal, Boehringer light units (BLU); mean over the file's lines of this peptide worked out at 34.6.
In turn, EHLQKERPKPPNKG [YOR233W 329-342] registered a normalised SPOT signal, Boehringer light units (BLU); mean over the file's lines of this peptide of 55.1.
The molecule EIAKRLQPGSPVLG [YHR047C 776-789] had a normalised SPOT signal, Boehringer light units (BLU); mean over the file's lines of this peptide of 58.7.
EIPSKDHPYDPEKD [YGR020C 93-106] yielded a normalised SPOT signal, Boehringer light units (BLU); mean over the file's lines of this peptide of 6.
The same measure, in the same setting: the figure for EKEAKSEPQQPEDN [YML010W 68-81] is 8.8; for EGRSRLFPHSPLGR [YGL122C 259-272] it is 90.9.

The target in another experiment is Sho1 SH3 (SHO1_YEAST), P40073. Put plainly: SPOT array.
Sequence of Sho1 SH3 (SHO1_YEAST), P40073 (P40073 295-366): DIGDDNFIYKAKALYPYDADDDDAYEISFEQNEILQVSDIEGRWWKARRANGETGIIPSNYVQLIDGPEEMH
Take EGTTKVDPIIPVPE [YJR122W 96-109]: the normalised SPOT signal, Boehringer light units (BLU); mean over the file's lines of this peptide came to 70.4.
Same read-out and setting: for EFTTREGPHQPIGN [YDR123C 192-205] the value was 43.5; for EKESRHYPIKPPSP [YMR147W 121-134], 44.6; for EIKDRDQPAVPPSP [YOL047C 317-330], 20.2.
Same read-out and setting: the figure for EKELKEGPSSPASI [YJL076W 376-389] is 61.7; for EKLIKITPDTPFGF [YOR340C 102-115] it is 36.8.
The same measure, in the same setting: for EHLQKERPKPPNKG [YOR233W 329-342] the value was 54.5; for EIAKRLQPGSPVLG [YHR047C 776-789], 22.
Regarding EIPSKDHPYDPEKD [YGR020C 93-106], the normalised SPOT signal, Boehringer light units (BLU); mean over the file's lines of this peptide is 31.1.
For the molecule EKEAKSEPQQPEDN [YML010W 68-81], the normalised SPOT signal, Boehringer light units (BLU); mean over the file's lines of this peptide is 53.3.
In turn, EGRSRLFPHSPLGR [YGL122C 259-272] came in with a normalised SPOT signal, Boehringer light units (BLU); mean over the file's lines of this peptide of 41.4.

The target in a further experiment is T3, Boi2 SH3 (BOI2_YEAST), P39969.
T3 chain: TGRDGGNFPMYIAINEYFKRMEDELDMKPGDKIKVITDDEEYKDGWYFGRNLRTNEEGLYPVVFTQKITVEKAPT
Put plainly: SPOT array.
Consider EGTTKVDPIIPVPE [YJR122W 96-109], for which the normalised SPOT signal, Boehringer light units (BLU); mean over the file's lines of this peptide stood at 1.6.
As for EFTTREGPHQPIGN [YDR123C 192-205], the normalised SPOT signal, Boehringer light units (BLU); mean over the file's lines of this peptide is 0.
For the molecule EKESRHYPIKPPSP [YMR147W 121-134], the normalised SPOT signal, Boehringer light units (BLU); mean over the file's lines of this peptide is 20.2.
Still for that read-out and setting: the figure for EIKDRDQPAVPPSP [YOL047C 317-330] is 20.6; for EKELKEGPSSPASI [YJL076W 376-389] it is 13.1.
Same read-out and setting: for EKLIKITPDTPFGF [YOR340C 102-115] the value was 19.1; for EHLQKERPKPPNKG [YOR233W 329-342], 29.7.
For EIAKRLQPGSPVLG [YHR047C 776-789], the normalised SPOT signal, Boehringer light units (BLU); mean over the file's lines of this peptide stood at 8.9.
The same measure, in the same setting: the figure for EIPSKDHPYDPEKD [YGR020C 93-106] is 7.3.
Still for that read-out and setting: the figure for EKEAKSEPQQPEDN [YML010W 68-81] is 17.9.
With EGRSRLFPHSPLGR [YGL122C 259-272], the normalised SPOT signal, Boehringer light units (BLU); mean over the file's lines of this peptide came to 165.

The target of the next experiment is T4, Myo5 SH3 (MYO5_YEAST), Q04439.
T4 chain: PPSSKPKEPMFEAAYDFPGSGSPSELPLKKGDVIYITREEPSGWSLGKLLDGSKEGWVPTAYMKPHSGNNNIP
Put plainly: SPOT array.
With EGTTKVDPIIPVPE [YJR122W 96-109], the normalised SPOT signal, Boehringer light units (BLU); mean over the file's lines of this peptide came to 180.
As to EFTTREGPHQPIGN [YDR123C 192-205], the normalised SPOT signal, Boehringer light units (BLU); mean over the file's lines of this peptide was found to be 79.8.
For EKESRHYPIKPPSP [YMR147W 121-134], the normalised SPOT signal, Boehringer light units (BLU); mean over the file's lines of this peptide was 180.
Same read-out and setting: for EIKDRDQPAVPPSP [YOL047C 317-330] the value was 108; for EKELKEGPSSPASI [YJL076W 376-389], 208; for EKLIKITPDTPFGF [YOR340C 102-115], 206.
Still for that read-out and setting: the figure for EHLQKERPKPPNKG [YOR233W 329-342] is 364; for EIAKRLQPGSPVLG [YHR047C 776-789] it is 172.
The same measure, in the same setting: for EIPSKDHPYDPEKD [YGR020C 93-106] the value was 51.8.
In the case of EKEAKSEPQQPEDN [YML010W 68-81], the normalised SPOT signal, Boehringer light units (BLU); mean over the file's lines of this peptide is 139.
Consider EGRSRLFPHSPLGR [YGL122C 259-272], for which the normalised SPOT signal, Boehringer light units (BLU); mean over the file's lines of this peptide came to 141.

For the next experiment, the target named is T5, Yfr024 SH3 (LSB3_YEAST), P43603.
T5 chain: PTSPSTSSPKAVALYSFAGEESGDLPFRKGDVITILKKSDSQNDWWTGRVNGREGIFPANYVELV
Put plainly: SPOT array.
Consider EGTTKVDPIIPVPE [YJR122W 96-109], for which the normalised SPOT signal, Boehringer light units (BLU); mean over the file's lines of this peptide is 0.
The same measure, in the same setting: the figure for EFTTREGPHQPIGN [YDR123C 192-205] is 9.9.
The same measure, in the same setting: for EKESRHYPIKPPSP [YMR147W 121-134] the value was 31.6; for EIKDRDQPAVPPSP [YOL047C 317-330], 8.7; for EKELKEGPSSPASI [YJL076W 376-389], 0.
Still for that read-out and setting: for EKLIKITPDTPFGF [YOR340C 102-115] the value was 61.9; for EHLQKERPKPPNKG [YOR233W 329-342], 824; for EIAKRLQPGSPVLG [YHR047C 776-789], 126.
EIPSKDHPYDPEKD [YGR020C 93-106] gave a normalised SPOT signal, Boehringer light units (BLU); mean over the file's lines of this peptide of 0.
The molecule EKEAKSEPQQPEDN [YML010W 68-81] displayed a normalised SPOT signal, Boehringer light units (BLU); mean over the file's lines of this peptide of -0.
The molecule EGRSRLFPHSPLGR [YGL122C 259-272] returned a normalised SPOT signal, Boehringer light units (BLU); mean over the file's lines of this peptide of 2220.

In the next experiment the target is T6, Rvs167 SH3 (RV167_YEAST), P39743.
T6 chain: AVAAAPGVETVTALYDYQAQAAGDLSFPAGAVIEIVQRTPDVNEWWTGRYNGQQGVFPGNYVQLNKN
Put plainly: SPOT array.
With EGTTKVDPIIPVPE [YJR122W 96-109], the normalised SPOT signal, Boehringer light units (BLU); mean over the file's lines of this peptide worked out at 53.1.
On to EFTTREGPHQPIGN [YDR123C 192-205], for which the normalised SPOT signal, Boehringer light units (BLU); mean over the file's lines of this peptide stood at 29.4.
Turning to EKESRHYPIKPPSP [YMR147W 121-134], the normalised SPOT signal, Boehringer light units (BLU); mean over the file's lines of this peptide was found to be 72.2.
EIKDRDQPAVPPSP [YOL047C 317-330] registered a normalised SPOT signal, Boehringer light units (BLU); mean over the file's lines of this peptide of 67.9.
On the same count and under the same terms, the figure for EKELKEGPSSPASI [YJL076W 376-389] is 41.1; for EKLIKITPDTPFGF [YOR340C 102-115] it is 46.5.
In the case of EHLQKERPKPPNKG [YOR233W 329-342], the normalised SPOT signal, Boehringer light units (BLU); mean over the file's lines of this peptide was 112.
Same read-out and setting: for EIAKRLQPGSPVLG [YHR047C 776-789] the value was 116; for EIPSKDHPYDPEKD [YGR020C 93-106], 0.
The same measure, in the same setting: for EKEAKSEPQQPEDN [YML010W 68-81] the value was 19.4; for EGRSRLFPHSPLGR [YGL122C 259-272], 393.

The values are drawn from PMC314469, “Protein Interaction Networks by Proteome Peptide Scanning” (PLoS Biology, 2004).
